Experimental data reported in patent US20230097015A1 (SEOUL NATIONAL UNIVERSITY R AND DB FOUNDATION, published 2023).

Experiments:
[1] = molecular target: T1, MlnC COM^A-AAL
T1 chain: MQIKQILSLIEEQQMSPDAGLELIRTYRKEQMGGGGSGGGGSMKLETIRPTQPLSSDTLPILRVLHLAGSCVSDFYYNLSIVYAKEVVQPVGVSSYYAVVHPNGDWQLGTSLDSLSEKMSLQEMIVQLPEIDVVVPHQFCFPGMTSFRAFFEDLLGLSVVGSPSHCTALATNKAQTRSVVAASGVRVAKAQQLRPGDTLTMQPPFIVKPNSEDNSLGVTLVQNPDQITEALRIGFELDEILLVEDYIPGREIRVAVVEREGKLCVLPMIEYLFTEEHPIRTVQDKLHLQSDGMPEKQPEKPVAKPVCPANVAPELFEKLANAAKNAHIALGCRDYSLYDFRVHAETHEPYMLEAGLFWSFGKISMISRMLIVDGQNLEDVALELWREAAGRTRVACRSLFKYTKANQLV

[2] = molecular target: T2, 4CL-MlnB COM^D (Bacillus amyloliquefaciens, UniProt Q42524 1-561); test: analytical SEC-FPLC of a 1:1 mixture and native PAGE
T2 construct: Unlabelled protein as used in SEC/native PAGE and in the two-step naringenin reaction; also called 4-coumarate-CoA ligase fused to MlnB COM donor domain; not shown: N-terminal His-tag from pET15b vector
T2 sequence: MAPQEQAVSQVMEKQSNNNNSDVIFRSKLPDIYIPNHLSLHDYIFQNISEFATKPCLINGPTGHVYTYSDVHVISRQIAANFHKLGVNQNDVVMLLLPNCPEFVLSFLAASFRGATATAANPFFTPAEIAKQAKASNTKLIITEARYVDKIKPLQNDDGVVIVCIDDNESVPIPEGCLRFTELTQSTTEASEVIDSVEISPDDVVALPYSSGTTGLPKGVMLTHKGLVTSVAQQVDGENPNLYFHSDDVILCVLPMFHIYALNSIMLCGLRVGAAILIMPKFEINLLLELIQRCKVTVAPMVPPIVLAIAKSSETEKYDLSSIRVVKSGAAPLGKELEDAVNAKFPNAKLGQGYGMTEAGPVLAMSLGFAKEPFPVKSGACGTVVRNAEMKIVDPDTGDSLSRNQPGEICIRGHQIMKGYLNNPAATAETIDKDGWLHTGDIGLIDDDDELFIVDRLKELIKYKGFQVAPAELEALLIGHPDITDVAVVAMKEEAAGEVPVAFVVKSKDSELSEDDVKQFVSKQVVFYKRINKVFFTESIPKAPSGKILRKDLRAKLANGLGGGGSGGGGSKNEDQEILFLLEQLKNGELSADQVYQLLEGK

[3] = molecular target: T3, Cy3-labeled 4CL-MlnB COM^D (Bacillus amyloliquefaciens, UniProt Q42524 1-561, Cy3-NHS ester linked to naturally occurring lysine residues (positions not stated)); test: Cy3/Cy5 FRET, three channels
T3 construct: Dye-labelled form used in the three-channel FRET analysis; also called 4CL-MlnB COMD labeled with Cy3; not shown: N-terminal His-tag from pET15b vector
T3 sequence: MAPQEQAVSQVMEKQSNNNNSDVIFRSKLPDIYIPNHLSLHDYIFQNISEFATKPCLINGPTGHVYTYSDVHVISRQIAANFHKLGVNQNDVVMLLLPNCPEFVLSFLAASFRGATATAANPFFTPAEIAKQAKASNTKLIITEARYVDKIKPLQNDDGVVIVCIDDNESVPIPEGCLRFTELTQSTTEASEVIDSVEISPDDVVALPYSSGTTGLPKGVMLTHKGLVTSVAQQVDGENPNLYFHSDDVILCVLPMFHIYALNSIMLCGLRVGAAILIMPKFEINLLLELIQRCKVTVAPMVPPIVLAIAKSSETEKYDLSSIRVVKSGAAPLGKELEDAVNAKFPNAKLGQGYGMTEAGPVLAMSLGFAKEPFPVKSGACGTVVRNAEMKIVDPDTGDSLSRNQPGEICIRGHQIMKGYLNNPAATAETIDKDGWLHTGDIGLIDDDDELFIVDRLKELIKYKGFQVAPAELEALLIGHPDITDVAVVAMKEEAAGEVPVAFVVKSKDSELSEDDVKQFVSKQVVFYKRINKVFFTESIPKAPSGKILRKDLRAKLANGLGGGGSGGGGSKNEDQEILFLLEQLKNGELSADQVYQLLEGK

B1: MlnB COM^D-CNL (protein)
chain: KNEDQEILFLLEQLKNGELSADQVYQLLEGKGGGSMAQSISLSLPQSTTPSKGVRLKIAALLKTIGTLILLLIALPLNALIVLISLMCRPFTKKPAVATHPQNILVSGGKMTKALQLARSFHAAGHRVILIEGHKYWLSGHRFSNSVSRFYTVPAPQDDPEGYTQALLEIVKREKIDVYVPVCSPVASYYDSLAKSALSEYCEVFHFDADITKMLDDKFAFTDRARSLGLSAPKSFKITDPEQVINFDFSKETRKYILKSISYDSVRRLNLTKLPCDTPEETAAFVKSLPISPEKPWIMQEFIPGKELCTHSTVRDGELRLHCCSNSSAFQINYENVENPQIQEWVQHFVKSLRLTGQISLDFIQAEDGTAYAIECNPRTHSAITMFYNHPGVAEAYLGKTPLAAPLEPLADSKPTYWIYHEIWRLTGIRSGQQLQTWFGRLVRGTDAIYRLDDPIPFLTLHHWQITLLLLQNLQRLKGWVKIDFNIGKLVELGGD
B1 was tested, and the “shinorine production in Saccharomyces cerevisiae (HPLC), against free or singly fused CNL and AAL” value [1] was “shinorine production increased by about 1.3 times”.

B2: MlnC COM^A-CHS (enzyme)
chain: MQIKQILSLIEEQQMSPDAGLELIRTYRKEQMGGGGSGGGGSGGGGSMVTVEEYRKAQRAEGPATVMAIGTATPSNCVDQSTYPDFYFRITNSEHKTDLKEKFKRMCEKSMIKKRYMHLTEEILKENPSMCEYMAPSLDARQDIVVVEVPKLGKEAAQKAIKEWGQPKSKITHLVFCTTSGVDMPGCDYQLTKLLGLRPSVKRLMMYQQGCFAGGTVLRLAKDLAENNKGARVLVVCSEITAVTFRGPNDTHLDSLVGQALFGDGAGAIIIGSDPIPGVERPLFELVSAAQTLLPDSHGAIDGHLREVGLTFHLLKDVPGLISKNIEKSLEEAFKPLGISDWNSLFWIAHPGGPAILDQVEIKLGLKPEKLKATRNVLSNYGNMSSACVLFILDEMRKASAKEGLGTTGEGLEWGVLFGFGPGLTVETVVLHSVAT
notes: Unlabelled protein as used in SEC/native PAGE and in the two-step naringenin reaction; also called chalcone synthase fused to MlnC COM acceptor domain; not shown: C-terminal His-tag from pET21c vector
B2: binds [2].

B3: Cy5-labeled MlnC COM^A-CHS (enzyme)
chain: MQIKQILSLIEEQQMSPDAGLELIRTYRKEQMGGGGSGGGGSGGGGSMVTVEEYRKAQRAEGPATVMAIGTATPSNCVDQSTYPDFYFRITNSEHKTDLKEKFKRMCEKSMIKKRYMHLTEEILKENPSMCEYMAPSLDARQDIVVVEVPKLGKEAAQKAIKEWGQPKSKITHLVFCTTSGVDMPGCDYQLTKLLGLRPSVKRLMMYQQGCFAGGTVLRLAKDLAENNKGARVLVVCSEITAVTFRGPNDTHLDSLVGQALFGDGAGAIIIGSDPIPGVERPLFELVSAAQTLLPDSHGAIDGHLREVGLTFHLLKDVPGLISKNIEKSLEEAFKPLGISDWNSLFWIAHPGGPAILDQVEIKLGLKPEKLKATRNVLSNYGNMSSACVLFILDEMRKASAKEGLGTTGEGLEWGVLFGFGPGLTVETVVLHSVAT
modifications: Cy5-NHS ester linked to naturally occurring lysine residues (positions not stated)
notes: Dye-labelled form used in the three-channel FRET analysis; also called MlnC COMA-CHS labeled with Cy5; not shown: C-terminal His-tag from pET21c vector
B3: binds [3].
